{"source": "the DeepSol protein solubility set", "assay": "soluble on expression in E. coli; label from the status in PepcDB or PDB records", "data": [{"sequence": "MSIPFTRWPEEFARRYREKGYWQDLPLTDILTRHAASDSIAVIDGERQLSYRELNQAADNLACSLRRQGIKPGETALVQLGNVAELYITFFALLKLGVAPVLALFSHQRSELNAYASQIEPALLIADRQHALFSGDDFLNTFVTEHSSIRVVQLLNDSGEHNLQDAINHPAEDFTATPSPADEVAYFQLSGGTTGTPKLIPRTHNDYYYSVRRSVEICQFTQQTRYLCAIPAAHNYAMSSPGSLGVFLAGGTVVLAADPSATLCFPLIEKHQVNVTALVPPAVSLWLQALIEGESRAQLASLKLLQVGGARLSATLAARIPAEIGCQLQQVFGMAEGLVNYTRLDDSAEKIIHTQGYPMCPDDEVWVADAEGNPLPQGEVGRLMTRGPYTFRGYYKSPQHNASAFDANGFYCSGDLISIDPEGYITVQGREKDQINRGGEKIAAEEIENLLLRHPAVIYAALVSMEDELMGEKSCAYLVVKEPLRAVQVRRFLREQGIAEFKLPDRVECVDSLPLTAVGKVDKKQLRQWLASRASA", "values": [{"measurement": "soluble on expression in E. coli", "value": "soluble"}]}, {"sequence": "MGSDKIHHHHHHMGIRVSTISRCIGHLEDEIGVALFLRRPNGVTLTFAGEQFLVRARRAMTEVRHAICEAGIAGTGRNGFVRLGLLSSLAAPFPAMLIKIYCAAYPGVRILYSEGGAADHRAALQHHRLDLAFLPHPEKAEGCDALGLWEERLFAAMAQDDPLTRHDVVTWDDLRERHFIFSEVPPGPELLDYLTERLVGFGFLLKADLLTVYRDTVMRVIANGSDVTVIGEARVSHPIQGVACRPITGESLFFHAVWLPTNDNPAFRRFLSLAKVLSKQCSVCELKEGLAGPSGEDHSVMDETSASLERKSRLLKIVSERCATCLLKKAIAD", "values": [{"measurement": "soluble on expression in E. coli", "value": "not soluble"}]}, {"sequence": "MSRTYLELSQDDGSAHKFYEVTVQGQVVTVRYGRIGAAGQTQTSTFPTAQKAEAAAAKKIGEKVRKGYEAAVQGQRAPRAVSRRQVASAPSTARAVAPVLWRFRTGSAAFGIHIDEDRCWVGNQAGDVYTLAHGGEVLARYQLPDGVKCLVADDFWIYAGCDDGRVYDLSSKLPFAAYDIAADVDIFWLDIHEGVLNVADRAGRLTVIDHEDEHQWSRGGRGEHAWMVRADDRAVYHGHTRGVTAHSPDGGVELWHTPTQGAVLFGWQEDDAVYAGTARHTVQRLSKATGGIEATYHCDSPVYSCATSPGGRFVFAGDSASSVYCFDRDGTRLWKLGTGGGSALSMQYRDERLFLVTTDGSLVCVDASEAAVTAAQQGSVPVVRDVKLAATLPTYAPATAATAVTTVTVAPAGSVVVECVQENGRTRIHVVTEGYDRSWNVQFPRAIREPGARYVVDALHAASGGFYRVRGDIRRLRLEHHHHHH", "values": [{"measurement": "soluble on expression in E. coli", "value": "not soluble"}]}, {"sequence": "MEDQDLLEIGILNSGHRQRILQAIQLLPKMRPIGHDGYHPTSVAEWLDSIELGDYTKAFLINGYTSMDLLKKIWEVELINVLKINLIGHRKRILASLGDRLHDDPPQKPPRSITLREPSGNHTPPQLSPSLSQSTYTTGGSLDVPHIIMQGDARRRRNENYFDDIPRSKLERQMAQSSVCEIWTNQNAGFPFSAIHQVHNTGDWGEPSITLRPPNEATASTPVQYWQHHPEKLIFQSCDYKAFYLGSMLIKELRGTESTQDACAKMRANCQKSTEQMKKVPTIILSVSYKGVKFIDATNKNIIAEHEIRNISCAAQDPEDLSTFAYITKDLKSNHHYCHVFTAFDVNLAYEIILTLGQAFEVAYQLALQARKGGHSSTLPESFENKPSKPIPKPRVSIRKSVQIDPSEQKTLANLPWIVEPGQEAKRGINTKYETTIF", "values": [{"measurement": "soluble on expression in E. coli", "value": "soluble"}]}, {"sequence": "MGSHHHHHHSQDPMMSRLKTAVYDYLNDVDITECTEMDLLCQLSNCCDFINETYAKNYDTLYDIMERDILSYNIVNIKNTLTFALRDASPSVKLATLTLLASVIKKLNKIQHTDAAMFSEVIDGIVAEEQQVIGFIQKKCKYNTT", "values": [{"measurement": "soluble on expression in E. coli", "value": "soluble"}]}, {"sequence": "PREEVARIHASSGTTGKPTVVGYTKNDLKVFAEVVARSLAAAGARPGMMLHNAYGYGLFTGGLGLHGGAEALGMTVVPVSGGMTERQVMLIQDFRPEVISCTPSYAQTLAEEFRKRGVSPEELSLEYAVLGAEPWTEAIRKQVDEGLGVKSTNIYGLSEIIGPGVSNECVEERQGSHI", "values": [{"measurement": "soluble on expression in E. coli", "value": "not soluble"}]}]}
